# Test results taken from publication PMC3466257.
# Target: immobilized fibrin (UniProt P02679)
# Experiment: cell-free flow-based adhesion assay of protein-coated microspheres; 10-µm polystyrene microspheres coated with immunopurified CD44 or human IgG (2×10^6/ml in DPBS, 0.1% BSA) perfused for 5 min at 37°C over immobilized fibrin in a parallel plate flow chamber, 0.25 to 0.5 dyn/cm^2; interacting microspheres counted by phase-contrast videomicroscopy
substance,measurement,value
CD44s immunopurified from PDGF-treated HL60 human myeloid cells (from UniProt P16070-12 21-361) (receptor),reduction of binding relative to CD44s from untreated HL60 cells,30%
